B1: Myosin-7 (Homo sapiens), P12883 (parent)
chain: MGDSEMAVFGAAAPYLRKSEKERLEAQTRPFDLKKDVFVPDDKQEFVKAKIVSREGGKVTAETEYGKTVTVKEDQVMQQNPPKFDKIEDMAMLTFLHEPAVLYNLKDRYGSWMIYTYSGLFCVTVNPYKWLPVYTPEVVAAYRGKKRSEAPPHIFSISDNAYQYMLTDRENQSILITGESGAGKTVNTKRVIQYFAVIAAIGDRSKKDQSPGKGTLEDQIIQANPALEAFGNAKTVRNDNSSRFGKFIRIHFGATGKLASADIETYLLEKSRVIFQLKAERDYHIFYQILSNKKPELLDMLLITNNPYDYAFISQGETTVASIDDAEELMATDNAFDVLGFTSEEKNSMYKLTGAIMHFGNMKFKLKQREEQAEPDGTEEADKSAYLMGLNSADLLKGLCHPRVKVGNEYVTKGQNVQQVIYATGALAKAVYERMFNWMVTRINATLETKQPRQYFIGVLDIAGFEIFDFNSFEQLCINFTNEKLQQFFNHHMFVLEQEEYKKEGIEWTFIDFGMDLQACIDLIEKPMGIMSILEEECMFPKATDMTFKAKLFDNHLGKSANFQKPRNIKGKPEAHFSLIHYAGIVDYNIIGWLQKNKDPLNETVVGLYQKSSLKLLSTLFANYAGADAPIEKGKGKAKKGSSFQTVSALHRENLNKLMTNLRSTHPHFVRCIIPNETKSPGVMDNPLVMHQLRCNGVLEGIRICRKGFPNRILYGDFRQRYRILNPAAIPEGQFIDSRKGAEKLLSSLDIDHNQYKFGHTKVFFKAGLLGLLEEMRDERLSRIITRIQAQSRGVLARMEYKKLLERRDSLLVIQWNIRAFMGVKNWPWMKLYFKIKPLLKSAEREKEMASMKEEFTRLKEALEKSEARRKELEEKMVSLLQEKNDLQLQVQAEQDNLADAEERCDQLIKNKIQLEAKVKEMNERLEDEEEMNAELTAKKRKLEDECSELKRDIDDLELTLAKVEKEKHATENKVKNLTEEMAGLDEIIAKLTKEKKALQEAHQQALDDLQAEEDKVNTLTKAKVKLEQQVDDLEGSLEQEKKVRMDLERAKRKLEGDLKLTQESIMDLENDKQQLDERLKKKDFELNALNARIEDEQALGSQLQKKLKELQARIEELEEELEAERTARAKVEKLRSDLSRELEEISERLEEAGGATSVQIEMNKKREAEFQKMRRDLEEATLQHEATAAALRKKHADSVAELGEQIDNLQRVKQKLEKEKSEFKLELDDVTSNMEQIIKAKANLEKMCRTLEDQMNEHRSKAEETQRSVNDLTSQRAKLQTENGELSRQLDEKEALISQLTRGKLTYTQQLEDLKRQLEEEVKAKNALAHALQSARHDCDLLREQYEEETEAKAELQRVLSKANSEVAQWRTKYETDAIQRTEELEEAKKKLAQRLQEAEEAVEAVNAKCSSLEKTKHRLQNEIEDLMVDVERSNAAAAALDKKQRNFDKILAEWKQKYEESQSELESSQKEARSLSTELFKLKNAYEESLEHLETFKRENKNLQEEISDLTEQLGSSGKTIHELEKVRKQLEAEKMELQSALEEAEASLEHEEGKILRAQLEFNQIKAEIERKLAEKDEEMEQAKRNHLRVVDSLQTSLDAETRSRNEALRVKKKMEGDLNEMEIQLSHANRMAAEAQKQVKSLQSLLKDTQIQLDDAVRANDDLKENIAIVERRNNLLQAELEELRAVVEQTERSRKLAEQELIETSERVQLLHSQNTSLINQKKKMDADLSQLQTEVEEAVQECRNAEEKAKKAITDAAMMAEELKKEQDTSAHLERMKKNMEQTIKDLQHRLDEAEQIALKGGKKQLQKLEARVRELENELEAEQKRNAESVKGMRKSERRIKELTYQTEEDRKNLLRLQDLVDKLQLKVKAYKRQAEEAEEQANTNLSKFRKVQHELDEAEERADIAESQVNKLRAKSRDIGTKGLNEE

Variants of: B1
Conditions: with mypc3_human MYBPC3, Q14896
Sequence of mypc3_human MYBPC3, Q14896 (Q14896 whole entry): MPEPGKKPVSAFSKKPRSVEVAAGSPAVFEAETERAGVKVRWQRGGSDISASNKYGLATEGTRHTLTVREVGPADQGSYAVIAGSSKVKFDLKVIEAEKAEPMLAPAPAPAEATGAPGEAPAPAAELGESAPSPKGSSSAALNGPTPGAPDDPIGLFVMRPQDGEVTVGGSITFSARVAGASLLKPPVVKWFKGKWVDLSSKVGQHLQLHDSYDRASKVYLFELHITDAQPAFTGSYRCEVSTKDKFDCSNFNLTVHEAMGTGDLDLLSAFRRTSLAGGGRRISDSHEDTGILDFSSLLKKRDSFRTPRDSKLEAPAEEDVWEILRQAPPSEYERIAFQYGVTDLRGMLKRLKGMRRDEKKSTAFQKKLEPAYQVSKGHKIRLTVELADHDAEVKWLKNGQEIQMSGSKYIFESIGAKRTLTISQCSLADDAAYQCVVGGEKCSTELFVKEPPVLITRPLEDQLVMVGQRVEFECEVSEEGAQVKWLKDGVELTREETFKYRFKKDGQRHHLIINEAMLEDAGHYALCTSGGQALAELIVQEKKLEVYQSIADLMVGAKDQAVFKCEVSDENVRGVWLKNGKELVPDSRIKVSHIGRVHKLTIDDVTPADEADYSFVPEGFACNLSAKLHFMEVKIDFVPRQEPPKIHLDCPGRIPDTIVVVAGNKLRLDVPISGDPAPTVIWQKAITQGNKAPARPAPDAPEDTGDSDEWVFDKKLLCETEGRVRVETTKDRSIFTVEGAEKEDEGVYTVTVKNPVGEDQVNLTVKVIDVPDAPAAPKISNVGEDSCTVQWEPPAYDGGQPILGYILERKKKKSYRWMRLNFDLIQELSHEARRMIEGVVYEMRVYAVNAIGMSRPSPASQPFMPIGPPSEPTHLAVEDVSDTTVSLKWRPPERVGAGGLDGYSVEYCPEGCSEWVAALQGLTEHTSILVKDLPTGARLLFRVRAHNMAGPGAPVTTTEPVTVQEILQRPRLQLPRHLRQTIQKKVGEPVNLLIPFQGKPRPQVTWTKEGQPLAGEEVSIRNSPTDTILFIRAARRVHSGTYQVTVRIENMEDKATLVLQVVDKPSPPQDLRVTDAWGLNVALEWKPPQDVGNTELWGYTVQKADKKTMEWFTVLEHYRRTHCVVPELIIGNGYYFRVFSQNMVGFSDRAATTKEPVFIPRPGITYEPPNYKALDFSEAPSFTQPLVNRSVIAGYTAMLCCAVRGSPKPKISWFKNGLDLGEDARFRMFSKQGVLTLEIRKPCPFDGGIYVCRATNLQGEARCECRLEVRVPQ

| effect of a mutation on the interaction | Variant |
| --- | --- |
| disrupting interaction strength | E848G |

From IntAct's records for PubMed 30623132
